± gives the standard deviation of the averaged measurements.
tested on: Saccharomyces cerevisiae; assay: protein stability index of tFT-peptide fusion (C-terminal peptide) (PSI (0-1 scale)); higher = more stable (slower turnover); details: genetic background: wild type; temperature: 30 C
Protocol: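 MPS profiling in S. cerevisiae of the yeast C-terminome library: the last 12 aa of each annotated ORF are fused to the C-terminus of a sfGFP-mCherry timer, after a GGGS linker. Cells are FACS-sorted into 8 mCherry/sfGFP bins and deep-sequenced. PSI runs from 0 (unstable) to 1 (stable); wild type and das1Δ backgrounds, two technical replicates each.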

Sequence	protein stability index
IASQNSLGWNEV [MSB2 C-terminal 12 aa]	0.693 ± 0.024
ICYTFKHLVSHK [FRT2 C-terminal 12 aa]	0.6574 ± 0.0033
IDEMYRGGISMN [AIM32 C-terminal 12 aa]	0.69 ± 0.024
IEAPQFYRYWSA [SWI3 C-terminal 12 aa]	0.706 ± 0.011
IEEMLEIISGYA [RPC17 C-terminal 12 aa]	0.584 ± 0.008
IEERLVAIAEQD [SCL1 C-terminal 12 aa]	0.7 ± 0.017
IELIQNMNKESF [YOR131C C-terminal 12 aa]	0.692 ± 0.015
IEQYLQTYGASA [URA5 C-terminal 12 aa]	0.695 ± 0.014
IEVGADSYAEEF [TUB3 C-terminal 12 aa]	0.671 ± 0.014
IEVGNGASVLIQ [TRS65 C-terminal 12 aa]	0.691 ± 0.023
IFQEAIDKTVEI [YML082W C-terminal 12 aa]	0.706 ± 0.029
IGAPASGLRIRV [COP1 C-terminal 12 aa]	0.69199 ± 5.7e-06
IGGLKREAEASA [GDH2 C-terminal 12 aa]	0.719 ± 0.0075
IHDFPKSHIVDF [IKI3 C-terminal 12 aa]	0.733 ± 0.025
IIRPLVLKNFII [YDR371C-A C-terminal 12 aa]	0.116 ± 0.0054
IIWEKRNPEQKI [ERG11 C-terminal 12 aa]	0.7138 ± 0.0069
IKARNMKIDRTQ [COG4 C-terminal 12 aa]	0.695 ± 0.041
IKGWFVNGQVPR [PEX17 C-terminal 12 aa]	0.674 ± 0.029
IKLEDAKGTHIK [RAD59 C-terminal 12 aa]	0.6411 ± 0.0032
IKMIKELGNHRL [RMD6 C-terminal 12 aa]	0.646 ± 0.026
IKSLFSLAKEAS [MSC7 C-terminal 12 aa]	0.5867 ± 0.0023

Sequence	protein stability index
IKVDNIVHIRND [YFH7 C-terminal 12 aa]	0.723 ± 0.039
ILEAWEKVDDSL [SNX4 C-terminal 12 aa]	0.734 ± 0.016
ILQCFTDEILNC [NDJ1 C-terminal 12 aa]	0.68 ± 0.022
ILRILANSNDDN [BXI1 C-terminal 12 aa]	0.6562 ± 0.0062
ILSWYFLETVAV [YMR254C C-terminal 12 aa]	0.34 ± 0.018
INEDNKAYSLDY [RIM4 C-terminal 12 aa]	0.722 ± 0.026
IPLTEFDLSDSK [YMR253C C-terminal 12 aa]	0.73422 ± 0.00045
IQESRFNFYLIT [RKM5 C-terminal 12 aa]	0.6241 ± 0.0035
IRDEGLNNLDTA [YPL257W C-terminal 12 aa]	0.704 ± 0.019
IRLFRSARRWVG [ADE6 C-terminal 12 aa]	0.66 ± 0.0083
IRSRGRLKEVYF [SLX5 C-terminal 12 aa]	0.68566 ± 0.00055
ISDNVPKEAIIM [PSA1 C-terminal 12 aa]	0.631 ± 0.034
ISGGTFGFRSEI [HBT1 C-terminal 12 aa]	0.7165 ± 0.0021
ISIVACALWLVF [DCW1 C-terminal 12 aa]	0.291 ± 0.0036
ISKVSNTRVCCT [YAL004W C-terminal 12 aa]	0.654 ± 0.017
ISSKSIPSVDDK [YIL071W-A C-terminal 12 aa]	0.706 ± 0.067
ISVSSGIENFAT [YJL202C C-terminal 12 aa]	0.654 ± 0.019
ITFIASLMTLNK [SAC6 C-terminal 12 aa]	0.679 ± 0.021
ITSQDILASTDY [YHL009W-B C-terminal 12 aa]	0.711 ± 0.027
ITSYNFLGVPFK [YLR406C-A C-terminal 12 aa]	0.724 ± 0.043
IVALILNTRGSE [VMA11 C-terminal 12 aa]	0.668 ± 0.028

Sequence	protein stability index
IVKAVKEVLSIE [PDB1 C-terminal 12 aa]	0.667 ± 0.044
IVLPENIPLLYK [YJL195C C-terminal 12 aa]	0.672 ± 0.023
IVPLSELEKTLI [XKS1 C-terminal 12 aa]	0.687 ± 0.0097
IVPSQGKKVKFD [NOP13 C-terminal 12 aa]	0.676 ± 0.011
IYKCEDERIDYF [KOG1 C-terminal 12 aa]	0.726 ± 0.015
IYLLSDYEKDNI [CMR2 C-terminal 12 aa]	0.684 ± 0.0073
KAELDRYKRENQ [SEM1 C-terminal 12 aa]	0.709 ± 0.049
KAFVIGAIALVA [YMR317W C-terminal 12 aa]	0.341 ± 0.0043
KALELILNILEH [SNU56 C-terminal 12 aa]	0.667 ± 0.012
KARLTEEQHRHE [CWC21 C-terminal 12 aa]	0.697 ± 0.019
KAVEFTTTALSS [MKT1 C-terminal 12 aa]	0.747 ± 0.11
KCQTKHTFTGLI [YGR269W C-terminal 12 aa]	0.723 ± 0.021
KDEINYLNSKLK [SPA2 C-terminal 12 aa]	0.706 ± 0.083
KDVIVDHHSDLN [SAP4 C-terminal 12 aa]	0.701 ± 0.052
KEQEESEKDKEN [BFR1 C-terminal 12 aa]	0.69 ± 0.05
KFDEKTATLVDE [YDL144C C-terminal 12 aa]	0.675 ± 0.022
KFETPGEYKKRI [LCL3 C-terminal 12 aa]	0.712 ± 0.019
KFPLSVKKKIRI [YNR075C-A C-terminal 12 aa]	0.697 ± 0.066
KGKLITKVNNEE [YML131W C-terminal 12 aa]	0.628 ± 0.04
KGPSKTALLSKK [PKP1 C-terminal 12 aa]	0.711 ± 0.033
KGVIGTNPPITH [MPC3 C-terminal 12 aa]	0.719 ± 0.081

Sequence	protein stability index
KGVVTLEEILKA [COQ11 C-terminal 12 aa]	0.712 ± 0.028
KHKNILPFNFTK [YEL074W C-terminal 12 aa]	0.741 ± 0.0086
KIGKGKLYFAIV [YDR220C C-terminal 12 aa]	0.491 ± 0.015
KIITLDLSNYAE [SMC1 C-terminal 12 aa]	0.672 ± 0.049
KIRPTFGDNQAS [HST3 C-terminal 12 aa]	0.73 ± 0.043
KISLLSHAQCYK [YIR016W C-terminal 12 aa]	0.6506 ± 0.0051
KKGETFGYDKWW [OPT1 C-terminal 12 aa]	0.683 ± 0.032
KKGPKFKSRKKL [RRP12 C-terminal 12 aa]	0.678 ± 0.011
KKHRVGMPKEDK [DIC1 C-terminal 12 aa]	0.69 ± 0.031
KKIIKKKDFYHR [YOR011W-A C-terminal 12 aa]	0.706 ± 0.04
KKKDASQEESLI [VMA2 C-terminal 12 aa]	0.7066 ± 0.0041
KKKKNASTCTIL [RSR1 C-terminal 12 aa]	0.711 ± 0.03
KKKKQIKNFQFG [YMR290W-A C-terminal 12 aa]	0.656 ± 0.05
KKLDGEVLCRVK [MRPS8 C-terminal 12 aa]	0.6437 ± 0.0055
KKLNRKIASIFN [ZEO1 C-terminal 12 aa]	0.6644 ± 0.0016
KKLRQPKEGETF [MMS2 C-terminal 12 aa]	0.6737 ± 0.00082
KKRKFGKVRIKN [NEJ1 C-terminal 12 aa]	0.698 ± 0.0074
KLAEHGAKKQKI [GCD10 C-terminal 12 aa]	0.659 ± 0.016
KLESSKNTSHEK [NFU1 C-terminal 12 aa]	0.705 ± 0.0085
